Results taken from patent US20250277790A1 (Johns Hopkins, published 2025).

Target: human EGFR tagged with the fluorescent protein mTurquoise at the C-terminus (wild-type), in plasma … (human, UniProt P00533 25-1210)
Experiment: cell-based or functional assay

B1: EGF ligand from mouse labeled with rhodamine at its N-terminus (rho-mEGF, Thermofisher, E3481) (ligand, UniProt P01132 977-1029, looked up)
chain: NSYPGCPSSYDGYCLNGGVCMHIESLDSYTCNCVIGYSGDRCQTRDLRWWELR
modifications: not fully specified; rhodamine (tetramethylrhodamine) at the N-terminus
EC50 of Y1068 phosphorylation per EGFR molecule: 5.5 nM
EC50 of Y1173 phosphorylation per EGFR molecule: 6.8 nM
